# The nanobody polyreactivity screen of Harvey et al. (2022)
# Test: yeast display, Sf9 membrane polyspecificity reagent, FACS + sequencing; frameworks hold sequencing errors
# In short: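 Polyreactivity labels are assigned by the sorting gate from which each nanobody was recovered. The gates were low and high (top ~1%), set on anti-HA fluorescence for expression and streptavidin fluorescence for reagent binding. Before sorting, galactose-induced (36–48 hours) yeast display cells were stained for 1 hour at 4 °C with 10% biotinylated, detergent-solubilized Sf9 membrane reagent.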
row,Sequence,polyreactivity (PSR sort gate)
1,QVQLVESGGGLVQAGGSLRLSCAASGNTFNSYAMGWYRQAPGKEREFVAAISGSGSSTYYADSVKGRFTISRDNAKNTVYLQMNSLKPEDTAVYYCAARWRYYGSFDYWGQGTQVTVSS,high polyreactivity
2,QVQLVESGGGLVQAGGILRISCAASGRTFIMNAMGWYRQAPGKERELVAAINWSGGTSTYYADSVKGRFTISRDNAKNTVYFQMNSLKPEDTAVYYCAADYYSYVYYDYWGQGTLVTVSS,low polyreactivity
3,QVQLVESGGGLVQAGGSLRLSCAASGFIFRWNAMGWYRQSPGKERELVATISNGGSTYYADSVKGRFTISRDNAKNSVYLQMNSLKPEDTAVYYCAADYWYFSISITDYDYWGQGTQVTVSS,high polyreactivity
4,QVQLVETGGGLVQAGGSLRLSCAAYGFTFEYNAMGWYRQAPGKERELVAAITTTGSTYYADSVKGRFTISRDNAKNTVYLQMNSLKPEDTAVYYCAADPVWRGYSYQFDYWGQGTQVTVSS,low polyreactivity
5,QVQLVESGGGLVQAGGSLRLSCAASGRIFGAYAMGWYRQAPWKERELVAAITSRGGNTYYADSVKGRFTISRDNAKNTVYLQMNSLKPEDTAVYYCAARHDKRRQYYVGQSAFDYWGQGTQVTVSS,low polyreactivity
6,QVQLVESGGGLVQAGGSLRLSCAASGRISFRYAMGWYRQAPGKERELVAAINRGGITNYADSVKGRFTISRDNAKNTVYLQMNSLKPEDTAVYYCAARYASPRYKSKIAYWGQGTQVSVSS,high polyreactivity
7,QVQLVESGGGLVQAGGSLRLSCAASGFIFPGYAMGWYRQAPGKEREFVAVISRSGVRTYYADSVKGRFTISRDNAKNTVYLQMNSLKPEDTAVYYCAARYYSTDLEYWGQGTQVTVSS,low polyreactivity
8,QVQLVESGGGLVQAGGSLRLSCAASGRIFYYNAMGWYRQAPGKERELVAAITSGGSTNYADSVKGRFSISRDNAKNTVYLQMNSLNPEDTAVYYCAADYYYYVAGVHYDYWGQGTQVTVSS,low polyreactivity
9,QDQLVESGGGLVQAGGSLRLSCASSGSTFNIYAMGWYRQAPGKERELVAAITSRGTSTYYADSVKGRFTISRDNAKNTVYLQMNSLKPEDTAVYYCAAEVSGNYYRYNYWGQGTQVTVSS,high polyreactivity
10,QVQLVESGGGLVQAGGSLRLSCAASGSIFRSYAMGWYRHAPGKERELVASISRRGGSTYYADSVKGRFTSSRDNSKNTVYLHMNSRKPEDTAVYYCAAVRYNSRVSTTTSEMYYWGQGTQVTVSS,low polyreactivity
11,QVQLVESGGGLVQAGGSLRLSCAASGSTFVRYAMGWYRQAPGKERELVAAISRRGSSTYYADSVKGRFTISRDNAKNTVYLQMNSRKPEDTADYYCAVDYSPGFDDYDYWGQGTHVTVSS,high polyreactivity
12,QVQLVESGGGLVQAGGSLRLSCAASGGTFQPNAMGWYRQAPGKERELVAAISWSDGSTYYADSVKGRFTISRDNAKNTVYLQMNSLKPEDTAVYYCAADFTYYDSPYRDYNYESWGQGTQVTVSS,low polyreactivity
13,QVQLVESGGGLVQAGGSLRLSCAASGRTFDKYAMGWYRQAPGKERELVAAISYDAGRTYYADSVKGRFTISRDNAKNTVYLQMNSLKPEDTAVYYCNAVRFRGFGWGQGTQVTVSS,high polyreactivity
14,QVQLVESGGGILQAGGSLRLSCAASGFTFLGYVMGWYRQSPGKEREIVADITESGGRTYYADSVKGRFTISRDNAKNTVFLQMNSLKPEDTAVYYCAAELSYWGYYYSFDYWGHGTQVTVSS,low polyreactivity
15,QDQLVESGGGLVQAGGSLRLSCAASGRTFFWNAMGWYRPAPGKERELVAAITWSGGSTYYADSVKGRFTISRDNAKNTVYLQMNSLKPEDPAVYYCAAVVTDYVWRSEYWGQGTQVTVSS,low polyreactivity
16,QVQLVESGGGLVQAGGSLRLSCAASGFTFTAYAMGWYRQAPGKERELVAAISSGGSTYYADSVKGRFTISRDNAKNTVYLQMNSLKPEDTAVYYCSAVGVYTVKRDYWGQGTQVTVSS,low polyreactivity
17,QVQLVESGGGFGQAGGSLRLSCAASGLIFRWYAMGWYRQAPGKERELVAAISWSGASTYYADSVKGRFTISRDNAKNTVYLQMNSLKPEDTAVYYCAADSAYWTYEYWGQGTQVTVSS,high polyreactivity
18,QVQLVESGGGLVQAGGSLRLSCDASGRIYGYNAIAWYRQAPGKERELVAAITNGGSTNYADSVKGRFTISRDNAKNTVFLQMNSLKPDETAVYYCAVKWYAPGHDYWGQGTQVTVSS,low polyreactivity
19,QVQLVESGGGLVKAGGSLRLSCAASGSTFDYYAMGWYRQAPGKERELVAAISGSGGSTYYADSVKGRFTISRDIAKNTVYLQMNSLKPEDTAVYYCATVRSRLFGQYYYWGQGTQVTVSS,high polyreactivity
20,QVQLVESGGGLVQAGGSLRLSCAASGGIFIDYALGWYRQAPGKERELVAAITYSGTSTSYADSVKGRFTISRDNAKITVYLQMNSLKPEDTAVYYCNTYPVLFYVGLDYWGQGTQVTVSS,low polyreactivity
21,QVQLVESGGGLVQAGGSLRLSCAASGRTFRYNAMGWYRQAPGKERELVASITYRGGSTYYADSVKGRFTISRDNAKNTVYLQMNSLKPEDTGVYYCATSVYSRPRKPRYYYWGQGTQVTVSS,high polyreactivity
22,QFQLVESGGGLVQAGGSLRLSCAASGSTFTPYDMGWYRQAPGKERELVAVITGSDGTYYADSVKGRFTISRDNAKNTVYLQMNSLKPEDTAVYYCATDWTFGRWSTLGVEMDYWGQGTQVTVSS,low polyreactivity

row,Sequence,polyreactivity (PSR sort gate)
1,QVQLVESGGGLVQAGGSLRLSCAASGSTFGFNAMGWYRPAPGKEREFVAAINTSGGNTYYADSVKGRFTISRDNAKNTVYLQMNSLKPEDTAVYYCNAREGHLYGYPYGYWGQGTQVTVSS,low polyreactivity
2,QVQHVESGGGLVQAGGSLRLSCAASGIIFGGNAMGWYRQAPGKERELVAGISGSGASTYYADSVKGRFTISRDNAKNTVYLQMNSLKPEDTAVYYCAADGYPGDDYWGQGTQVTVSS,high polyreactivity
3,QVQLVESGGGLVQAGGSLRLSCAASGSIFSRYTMGWYRQAPGKERELVAAISYSGTRTYYADSVKGRFTISRDNAKNTVYLQMNSLKPEDTAVYYCAAIASPAGSNYWGQGTQVTVSS,high polyreactivity
4,QVQLVESGGGLVQAGGSLRLSCADSGSTFWFYTMGWYRQAPGKERELVATITSGGSTNYADSVKGRFTISRDNAKNTVYLQMNSLKPEDTAVYYCAASSVLTNHDYWGQGTQVTVSS,low polyreactivity
5,QVQLVESGGGLVQAGGSVRLSCAASGRTSAWYAMGWYRQAPVKERELVADISGSADSTYYADSVKGRFTISRDNAKYTVYVQMHSLKPEDTAVYYRATSISTPTGDPFDYWGQRTQVTVSS,low polyreactivity
6,QVQIVESGGGLVQAGGSLRLSCAASGRILWDYAMGWYRQATGKEWELVAAIDWSAGSTYYADSVKGRFTISRDTAKNTVYLQMNSLKPEDTAVYYCYIDYTYYYEDDFWGQGTQVTVSS,low polyreactivity
7,QVELVESGGGLVQAGGSLRLSCAASGFTFRYYAMGWYRQAPGKERELVAAINASGGRTYYADSVKGRFTISRDNAKNTVYLQMNSLKPEDTAVYYCAARSIRQHYGMDYWGQGTQVTVSS,high polyreactivity
8,QVQLVESGGGLVQAGGSLRLSCAASGRTFGQNAMGWYRPAPGKERELVAAISRGGSTYYADSVKGRFTISRDNAKNTVYLQMNSLKPEDTAVYYCAAAKKSGVYLRLNYWGQGTQVTVSS,high polyreactivity
9,QVQLVESGGGLVQAGGSLRLSCAASGLIFYDNMGWSRQAPGKERELVAAISSSGGSTSYADSVKGRFTISRDNAKNTVYLQMNSLKPADTAVYYCAADSYPAYLGFVGFDYWGQGTQVTVSS,low polyreactivity
10,QDQLVESGGGLVQAGGSLRLSCAASGITFAYYVMGWYRQATGKERELVAAISRSGSTYYADSVKGRFTISRDNAKNTVYLQMNSLKPEDTAVNYCAVLYIRWYTYEYWGQGTQVTVSS,high polyreactivity
11,QVQLVESGGGLVQAGGSLRLSCAASGIIFQGYVMGWYRQAPGKERELVAVISRTGGSTYYADSVKGRFTISRDNAKNTVYLQMNSLKPEDTAVYYSSAGTPRLRYLQGHRMNYWGKGTQVTVSS,high polyreactivity
12,QVQLVESGGGLVQAGGSLRLSCAASGYIFGGYAMGWYRQAPGKERELVAAISRSGGSTYYADSVKGRFTISRDNAKNTVYLQMNSLKPEDTAVYYCAVRGYTLRYGYWGQGTQVTVSS,high polyreactivity
13,QGQLVESGGGLVQAGGSLRLSCAASGSIFYYNDMGWYRQAPGKEWELVATITNGGGTNYADSVKGRFTISRDNAKYTVYLQMNSLKPEDTAVYYCAADLWPTVTASGDLIVKFDYWGQGTQVTVSS,low polyreactivity
14,QVQLVESGGGLVQAGGSLRLSCAASGRISGGYDMGWYRQAPGKERELVAAITNTGGITYYADSVKGRFTISRDNAKNTVYLQMNSLKPEDTAVYYCNAEYEISFYVLFDYWGQGTQVTVSS,low polyreactivity
15,QVQLVESGGGLVQAGGSLRLSCAASGTIFDAYAMGWYRQAPGKERELVAAISLDDGSTYYADSVKGRFTISRDNAKNTVYLQMNSLKPEDTAVYYCAADYYVRSQHLYATSGNYWGQGTQVTVSS,high polyreactivity
16,QVQLVESGGGLVQAGGSLRLSCAASGIIFGRYAMGWYRQSPGKERELVAAISSRGGSTYYADSVKGRFTISRDNAKNTVYLQMNSLKPEDTAVYYCAATWGYLRGSTNYYYWGQGTQVTVSS,high polyreactivity
17,QVQLVESGGGLVQAGGSLRLSCAASGIIIRYYGMGWYRQAPGKERELVARIRWTGGSTYYADSVKGRFTISRDNAKNTVYLQMNSLKPEDTAVYYCAAAWWSYKFNRDFDYWGQGTQVTVSS,low polyreactivity
18,QVQLEESGGGLVQAGGSLRLSCAASGRTSRSYTMGWYRQAPGKERELVAAITRGGRTYYADSVKGRFTISRDNANNTVYLQMNSLKPEDTAVYYCDTVRVQSYGYWGQGTQVTVSS,low polyreactivity
19,QVQLVESGGGLVQAGGSLRLSCAASGSTFHGYDMGWYRQAPGKERELVAAITSSGDDTYYADSVKGRFTISRDNAKNTVYLQMNSLKPEDTAVYYCAAEYTEGYTHDYWGQGTQVNVSS,low polyreactivity
20,QVQLQESGGGLVQAGGSLRLSCAASGSIFKVVDMGLYRQEPAKEREFVATIGEGGNTYYADSVKGRFTISRDNAKNTVFLQMNSLKPEDTAVYFYAVVLGTSYRYTYWGQGTQVTVSS,low polyreactivity
21,QVQLVESGGGLGQAGGSLRLSCAASGRIFGYYAMGGYRQAPGKARELVAGIDWSGGNTYYADSVKGRFTISRDNAKNTVYLQMNSLKPEDTAVYYCAKYKGRGDSGYDSWGQGTQVTVSS,low polyreactivity
